Key:
[1] = tested on: PTB1 C4 C250S;C251S;E518C;del1-55, P26599-1; assay: filter binding; details: Filter binding: 5 mM Hepes pH 7.4, 100 mM KCl, 3 mM MgCl2, 5% glycerol, 75 ug/ml yeast tRNA, 75 ug/ml BSA, 0.5 mM DTT, room temp; probing: 20 mM HEPES-KOH pH 7.
[2] = target: PTB-GFP (UniProt P26599); assay: single-molecule TIRF; details: Filter binding: 5 mM Hepes pH 7.4, 100 mM KCl, 3 mM MgCl2, 5% glycerol, 75 ug/ml yeast tRNA, 75 ug/ml BSA, 0.5 mM DTT, room temp, probing: 20 mM HEPES-KOH pH 7.
[3] = tested on: PTB1 C1C2 C250S;C251S;Q124C;D284C;del1-55, P26599-1; assay: filter binding; details: Filter binding: 5 mM Hepes pH 7.4, 100 mM KCl, 3 mM MgCl2, 5% glycerol, 75 ug/ml yeast tRNA, 75 ug/ml BSA, 0.5 mM DTT, room temp; probing: 20 mM HEPES-KOH pH 7.
[4] = tested on: PTB1 C1C2m C250S;C251S;Q124C;D284C;I214S;F216A;K218S;del1-55, P26599-1; assay: filter binding; details: Filter binding: 5 mM Hepes pH 7.4, 100 mM KCl, 3 mM MgCl2, 5% glycerol, 75 ug/ml yeast tRNA, 75 ug/ml BSA, 0.5 mM DTT, room temp; probing: 20 mM HEPES-KOH pH 7.
[5] = tested on: PTB1 C1mC2 C250S;C251S;Q124C;D284C;del1-55, P26599-1; assay: filter binding; details: Filter binding: 5 mM Hepes pH 7.4, 100 mM KCl, 3 mM MgCl2, 5% glycerol, 75 ug/ml yeast tRNA, 75 ug/ml BSA, 0.5 mM DTT, room temp; probing: 20 mM HEPES-KOH pH 7.
[6] = tested on: PTB1 C1mC2m C250S;C251S;Q124C;D284C;I214S;F216A;K218S;del1-55, P26599-1; assay: filter binding; details: Filter binding: 5 mM Hepes pH 7.4, 100 mM KCl, 3 mM MgCl2, 5% glycerol, 75 ug/ml yeast tRNA, 75 ug/ml BSA, 0.5 mM DTT, room temp; probing: 20 mM HEPES-KOH pH 7.
[7] = tested on: PTB1 C3C4 C250S;C251S;E518C;del1-55, P26599-1; assay: filter binding; details: Filter binding: 5 mM Hepes pH 7.4, 100 mM KCl, 3 mM MgCl2, 5% glycerol, 75 ug/ml yeast tRNA, 75 ug/ml BSA, 0.5 mM DTT, room temp; probing: 20 mM HEPES-KOH pH 7.
[8] = tested on: PTB1 C3C4m C250S;C251S;E518C;del1-55, P26599-1; assay: filter binding; details: Filter binding: 5 mM Hepes pH 7.4, 100 mM KCl, 3 mM MgCl2, 5% glycerol, 75 ug/ml yeast tRNA, 75 ug/ml BSA, 0.5 mM DTT, room temp; probing: 20 mM HEPES-KOH pH 7.
[9] = tested on: PTB1 C3mC4 C250S;C251S;E518C;del1-55, P26599-1; assay: filter binding; details: Filter binding: 5 mM Hepes pH 7.4, 100 mM KCl, 3 mM MgCl2, 5% glycerol, 75 ug/ml yeast tRNA, 75 ug/ml BSA, 0.5 mM DTT, room temp; probing: 20 mM HEPES-KOH pH 7.
[10] = tested on: PTB1 C3mC4m C250S;C251S;E518C;del1-55, P26599-1; assay: filter binding; details: Filter binding: 5 mM Hepes pH 7.4, 100 mM KCl, 3 mM MgCl2, 5% glycerol, 75 ug/ml yeast tRNA, 75 ug/ml BSA, 0.5 mM DTT, room temp; probing: 20 mM HEPES-KOH pH 7.
[11] = tested on: PTB1 C4m C250S;C251S;E518C;del1-55, P26599-1; assay: filter binding; details: Filter binding: 5 mM Hepes pH 7.4, 100 mM KCl, 3 mM MgCl2, 5% glycerol, 75 ug/ml yeast tRNA, 75 ug/ml BSA, 0.5 mM DTT, room temp; probing: 20 mM HEPES-KOH pH 7.
[12] = tested on: PTB1 C4pack C250S;C251S;E518C;E502K;V505E;I509K;del1-55, P26599-1; assay: filter binding; details: Filter binding: 5 mM Hepes pH 7.4, 100 mM KCl, 3 mM MgCl2, 5% glycerol, 75 ug/ml yeast tRNA, 75 ug/ml BSA, 0.5 mM DTT, room temp; probing: 20 mM HEPES-KOH pH 7.
[13] = tested on: PTB1 LmC4 C250S;C251S;E518C;K439A;K440A;del1-55, P26599-1; assay: filter binding; details: Filter binding: 5 mM Hepes pH 7.4, 100 mM KCl, 3 mM MgCl2, 5% glycerol, 75 ug/ml yeast tRNA, 75 ug/ml BSA, 0.5 mM DTT, room temp; probing: 20 mM HEPES-KOH pH 7.
Sequence of PTB1 LmC4 C250S;C251S;E518C;K439A;K440A;del1-55, P26599-1 (P26599 other isoform, or with tags, fused parts or gaps C250S C251S E518C K439A K440A): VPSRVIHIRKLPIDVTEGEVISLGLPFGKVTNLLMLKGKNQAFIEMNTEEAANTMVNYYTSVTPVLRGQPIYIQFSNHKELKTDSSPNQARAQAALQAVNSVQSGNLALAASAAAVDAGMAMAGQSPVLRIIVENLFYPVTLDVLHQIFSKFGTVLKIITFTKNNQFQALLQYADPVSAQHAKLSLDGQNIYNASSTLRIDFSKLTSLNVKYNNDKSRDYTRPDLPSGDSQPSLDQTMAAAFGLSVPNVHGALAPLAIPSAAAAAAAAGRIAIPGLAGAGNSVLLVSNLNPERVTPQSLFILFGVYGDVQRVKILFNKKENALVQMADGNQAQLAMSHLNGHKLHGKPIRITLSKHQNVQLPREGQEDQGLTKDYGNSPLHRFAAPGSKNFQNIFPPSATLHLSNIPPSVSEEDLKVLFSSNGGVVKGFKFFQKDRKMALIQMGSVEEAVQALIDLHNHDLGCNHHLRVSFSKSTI

Sequence of PTB-GFP (P26599 whole entry): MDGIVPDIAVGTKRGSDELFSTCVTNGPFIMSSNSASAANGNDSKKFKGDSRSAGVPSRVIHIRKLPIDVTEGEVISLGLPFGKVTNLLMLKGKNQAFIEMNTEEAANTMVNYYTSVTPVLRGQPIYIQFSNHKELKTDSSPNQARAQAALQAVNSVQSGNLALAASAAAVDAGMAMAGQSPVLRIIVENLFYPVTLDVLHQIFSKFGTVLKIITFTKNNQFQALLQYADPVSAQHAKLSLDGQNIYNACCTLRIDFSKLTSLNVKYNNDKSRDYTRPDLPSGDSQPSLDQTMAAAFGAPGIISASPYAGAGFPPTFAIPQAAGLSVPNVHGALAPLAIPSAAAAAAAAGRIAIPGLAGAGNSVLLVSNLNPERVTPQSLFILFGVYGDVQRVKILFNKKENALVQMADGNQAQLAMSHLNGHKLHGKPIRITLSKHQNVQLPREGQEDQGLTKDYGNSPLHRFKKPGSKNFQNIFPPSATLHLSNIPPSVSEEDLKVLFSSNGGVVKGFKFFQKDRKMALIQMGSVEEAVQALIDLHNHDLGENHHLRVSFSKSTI
Sequence of PTB1 C4 C250S;C251S;E518C;del1-55, P26599-1 (P26599 other isoform, or with tags, fused parts or gaps C250S C251S E518C): as the sequence (P26599 other isoform, or with tags, fused parts or gaps C250S C251S E518C K439A K440A) above, with A384K, A385K counted along it
Sequence of PTB1 C1C2 C250S;C251S;Q124C;D284C;del1-55, P26599-1 (P26599 other isoform, or with tags, fused parts or gaps C250S C251S Q124C D284C): as the sequence (P26599 other isoform, or with tags, fused parts or gaps C250S C251S E518C K439A K440A) above, with Q69C, D229C, A384K, A385K, C463E counted along it
Sequence of PTB1 C1mC2 C250S;C251S;Q124C;D284C;del1-55, P26599-1 (P26599 other isoform, or with tags, fused parts or gaps C250S C251S Q124C D284C): as the sequence (P26599 other isoform, or with tags, fused parts or gaps C250S C251S E518C K439A K440A) above, with Q69C, D229C, A384K, A385K, C463E counted along it
Sequence of PTB1 C1C2m C250S;C251S;Q124C;D284C;I214S;F216A;K218S;del1-55, P26599-1 (P26599 other isoform, or with tags, fused parts or gaps C250S C251S Q124C D284C I214S F216A K218S): as the sequence (P26599 other isoform, or with tags, fused parts or gaps C250S C251S E518C K439A K440A) above, with Q69C, I159S, F161A, K163S, D229C, A384K, A385K, C463E counted along it
Sequence of PTB1 C1mC2m C250S;C251S;Q124C;D284C;I214S;F216A;K218S;del1-55, P26599-1 (P26599 other isoform, or with tags, fused parts or gaps C250S C251S Q124C D284C I214S F216A K218S): as the sequence (P26599 other isoform, or with tags, fused parts or gaps C250S C251S E518C K439A K440A) above, with Q69C, I159S, F161A, K163S, D229C, A384K, A385K, C463E counted along it
Sequence of PTB1 C3C4 C250S;C251S;E518C;del1-55, P26599-1 (P26599 other isoform, or with tags, fused parts or gaps C250S C251S E518C): as the sequence (P26599 other isoform, or with tags, fused parts or gaps C250S C251S E518C K439A K440A) above, with A384K, A385K counted along it
Sequence of PTB1 C4m C250S;C251S;E518C;del1-55, P26599-1 (P26599 other isoform, or with tags, fused parts or gaps C250S C251S E518C): as the sequence (P26599 other isoform, or with tags, fused parts or gaps C250S C251S E518C K439A K440A) above, with A384K, A385K counted along it
Sequence of PTB1 C3mC4m C250S;C251S;E518C;del1-55, P26599-1 (P26599 other isoform, or with tags, fused parts or gaps C250S C251S E518C): as the sequence (P26599 other isoform, or with tags, fused parts or gaps C250S C251S E518C K439A K440A) above, with A384K, A385K counted along it
Sequence of PTB1 C3C4m C250S;C251S;E518C;del1-55, P26599-1 (P26599 other isoform, or with tags, fused parts or gaps C250S C251S E518C): as the sequence (P26599 other isoform, or with tags, fused parts or gaps C250S C251S E518C K439A K440A) above, with A384K, A385K counted along it
Sequence of PTB1 C3mC4 C250S;C251S;E518C;del1-55, P26599-1 (P26599 other isoform, or with tags, fused parts or gaps C250S C251S E518C): as the sequence (P26599 other isoform, or with tags, fused parts or gaps C250S C251S E518C K439A K440A) above, with A384K, A385K counted along it
Sequence of PTB1 C4pack C250S;C251S;E518C;E502K;V505E;I509K;del1-55, P26599-1 (P26599 other isoform, or with tags, fused parts or gaps C250S C251S E518C E502K V505E I509K): as the sequence (P26599 other isoform, or with tags, fused parts or gaps C250S C251S E518C K439A K440A) above, with A384K, A385K, E447K, V450E, I454K counted along it

Row | Substance | Kd [1] [nM] | binding signal (% RNA with bound PTB-GFP) [2] | Kd [3] [nM] | Kd [4] [nM] | Kd [5] [nM] | Kd [6] [nM] | Kd [7] [nM] | Kd [8] [nM] | Kd [9] [nM] | Kd [10] [nM] | Kd [11] [nM] | Kd [12] [nM] | Kd [13] [nM] | Kd ([2]; average Kd, 3-4 PTB sites, 2.6% of RNA with bound PTB-GFP, nuclear extract) [nM]
1 | AUGUGAACAUGGAAUCAUCAAGGAAUGCACACUCACCAGCAACACCAAGUGCAAAGAGGAAGGUAAUUAUUUUUUUACGGUUAUAUUCUCCUUUCCCCCAACCCCAUGGAAAGAUGUGAAGAAAAACCAAUCACUCUUGAUUACUAGAAAGUCCUUUAUUUAAUCUUAAAGAUUGCUUAUUUUCAUAUAAAAUGUCCAAUGUUCCAACCUACAGGAUCCAGAUCUAACUUGGGGUGGCAAUGCACACUCACCAGGCCAAUUCCACUAAUUGUUUGGGGUAAGUUCUUGCUUUGUUCAAACUGCAGAUUGAAAUAACUUGGGAAGUAGGUGUGAAAGUAUGUUCUCACAUGCAUUCUACAAGGCUGAGACCUGAGUUGAUAAAAUUUCUUUGUUCUUUCAGUGAAGAGAAAGGAAGUACAGAAAACAUGCAGAAAGCACAGAAAGGAA [FAS m0 mutant RNA] | 7.5 | 2.9 | – | – | – | – | – | – | – | – | – | – | – | –
2 | AUGUGAACAUGGAAUCAUCAAGGAAUGCACACUCACCAGCAACACCAAGUGCAAAGAGGAAGGUAAUUAUUUUUUUACGGUUAUAUUCUCCUUUCCCCCAACCCCAUGGAAAGAUGUGAAGAAAAACCAAUCACUCUUGAUUACUAGAAAGUCCUUUAUUUAAUCUUAAAGAUUGCUUAUUUUCAUAUAAAAUGUCCAAUGUUCCAACCUACAGGAUCCAGAUCUAACUUGGGGUGGCUUUGUCUUCUUCUUUUGCCAAUUCCACUAAUUGUUUGGGGUAAGUUCUUGCUUUGUUCAAACUGCAGAUUGAAAUAACUUGGGAAGUAGGUGUGAAAGUAUGUUCUCACAUGCAUUCUACAAGGCUGAGACCUGAGUUGAUAAAAUUUCUUUGUUCUUUCAGUGAAGAGAAAGGAAGUACAGAAAACAUGCAGAAAGCACAGAAAGGAA [FAS WT RNA (exon 5-6-7)] | 10.3 | – | 10.1 | 15.3 | 11.6 | 12.3 | 14.7 | 22.9 | 16.5 | 24.6 | 29.9 | 6.3 | 14.2 | 20
3 | Tpm1 RNA | – | 7.9 | – | – | – | – | – | – | – | – | – | – | – | –

From publication PMC4117754
